Measurements from the supplement of paper PMC12667976.

B1: library; numbered along this chain (parent)
chain: MATDAALRRLLRLHRTEIAVAVDSAFPLLHALADHDVVPEDKFQETLHLKEKEGCPQAFHALLSWLLTQDSTAILDFWRVLFKDYNLERYGRLQPILDSFPKDVDLSQPRKGRKPPAVPKALVPPPRLPTKRKASEEARAAAPAALTPRGTASPGSQLKAKPPKKPESSAEQQRLPLGNGIQTMSASVQRAVAMSSGDVPGARGAVEGILIQQVFESGGSKKCIQVGGEFYTPSKFEDSGSGKNKARSSSGPKPLVRAKGAQGAAPGGGEARLGQQGSVPAPLALPSDPQLHQKNEDECAVCRDGGELICCDGCPRAFHLACLSPPLREIPSGTWRCSSCLQATVQEVQPRAEEPRPQEPPVETPLPPGLRSAGEEVRGPPGEPLAGMDTTLVYKHLPAPPSAAPLPGLDSSALHPLLCVGPEGQQNLAPGARCGVCGDGTDVLRCTHCAAAFHWRCHFPAGTSRPGTGLRCRSCSGDVTPAPVEGVLAPSPARLAPGPAKDDTASHEPALHRDDLESLLSEHTFDGILQWAIQSMARPAAPFPS

Variants of: B1
Experiment: AIRE transcriptional activation functional score (insulin promoter-GFP; nonsense median 0, synonymous median 1) (normalised score); higher = higher AIRE activity (more reporter activation)
Conditions: with insulin promoter-GFP reporter in HEK293
Method: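 Deep mutational scan of full-length human AIRE (codon-optimized cDNA, DT-POPCode NNN libraries over three regions) integrated at a Bxb1 landing pad in HEK293 cells carrying an insulin core promoter-GFP reporter at a Flp-In site. Cells were sorted for the top 10% GFP about 14 days after transfection. Variant frequency log-ratios (select vs non-select, TileSeq) were rescaled so that the nonsense median is 0 and the synonymous median is 1, then averaged over biological replicates.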

AIRE transcriptional activation functional score of substitutions, site by site:
T130: G 1.13; L 1.13; W 1.39; S 1.36; Y 1.11; E 0.325; I 1.05; D 0.225; P 1.36; A 1.78; K 0.531; V 0.747; R 0.316; C 1.38; F 1.71; H 0.621; N 0.915
E137: C 0.524; V 0.84; W 1.59; A 1.36; Y 1.71; I 0.97; N 0.174; R 0.377; M 2.33; Q -0.415; F 1.36; G 0.593; S 0.539; P 1.18; K 0.00389; L 0.822; H 0.409; D 1.23; T 0.166
A134: W 0.124; N 1.63; G -0.0179; L 1.11; V 1.34; C 1.35; K -3.51; Y 0.952; I 1.43; S 1.06; D 0.263; H 0.548; R 0.538; E -0.378; P -0.0505; T -0.16; Q 1.1; F 1.29; M -0.832
A138: W 1.66; K 0.889; V 1.1; T 0.99; D 0.727; M 2.84; F 1.13; Y 1.36; Q 0.334; R 1.19; L 1.27; C 1.51; I 1.06; S 0.847; N 0.5; H 0.328; E 1.11; P 0.857; G 0.96
P124: K 0.627; E 0.934; Q 0.964; T 0.68; D 0.6; G 1.27; I 1.71; N 0.804; M 1.48; C 1.15; W 1.5; R 0.769; F 1.35; H 0.958; V 1.65; Y 1.81; L 1.09; S 1.08
R139: F 1.51; S 0.893; Y 1.25; H 0.679; Q 1.35; G 1.2; D 0.568; L 1.19; W 1.54; I 1; A -0.0134; T 0.641; N 0.522; C 0.377; P 0.0776; V 0.965; E 0.912; M 1.04; K 1.37
P129: K 1.07; T 1.17; Y 0.0475; L 0.107; E -0.0453; C 0.895; A 0.717; G 0.951; D 0.0133; N 0.901; H -0.142; F 0.395; S 0.685; R 0.451; V 0.215; M 0.564; Q 0.651; I 0.253; W -0.183
P125: S 1.04; R 0.79; I 1.36; A 1.25; K 0.907; C 0.918; N 0.92; G 1.08; W 1.36; V 1.19; F 0.97; Y 0.77; T 1.42; D 0.901; E 0.892; M 1.18; Q 0.768; H 1.27; L 1.24
P126: F 0.304; G 1.42; D 0.773; A 0.621; W 0.0843; M 0.141; K 1.08; N 0.042; I 0.105; V 0.0693; H 0.139; C 0.317; R -0.0135; L 0.122; Q -0.177; S 0.0633; E 0.762; Y -0.0102; T 0.134
E136: S 0.919; L 0.669; M 0.441; N 0.529; P 1.91; T 0.767; C 1.22; D 0.541; I 0.792; Q 1.45; F 0.605; H 1.15; G 0.816; W 1; A 1.16; Y 1.32; V 0.704; R -0.203; K -0.163
R127: H 0.326; D 0.358; S 0.869; K 0.758; T 0.335; F 0.897; N 1.09; A 0.314; W 0.912; G 0.421; Y 0.503; C 0.833; Q 0.887; M 1.1; I 0.611; E 0.317; P 0.804; V 0.801; L 0.607
A140: D 1.07; N 0.714; S 1.02; R 1.14; L 1.13; M 0.337; V 1.35; P 1.56; F 1.71; Y 1.38; W 1.46; K 0.768; T 1.12; Q 0.908; H 1.37; C 0.626; I 1.46; E 1.36; G 1.12
K133: Q -0.167; M -0.0607; G 0.153; C 0.0795; P 0.469; Y -0.0322; E 0.0731; T 0.351; N -0.0115; V -0.175; I -0.178; R 1.43; S 0.436; D 0.12; L -0.0606; W -0.155; A -0.0211; F -0.0481; H 0.287
L128: Q 0.496; Y 1.41; M 1.32; K -0.124; H 0.857; V 1.12; R 0.525; D -0.0224; C 1.19; E 0.0699; I 1.19; A 1.19; W 1.39; T 1.62; S 0.817; G 1.51; N 1.02; F 1.43; P 1.17
A141: F 1.77; L 1.36; K 1.19; Q 1.24; G 1.28; R 1.02; C 0.959; D 1.25; E 1.49; N 0.447; P 0.97; H 1.12; M 0.533; I 0.758
S135: W 1.79; R 0.761; D 1.56; Q 1.13; C 0.747; G -0.37; M -0.155; E 1.38; I 1.2; K 1.43; V 0.924; L 1.04; F 1.13; H 1.48; T 2.07; A 2.31; P 0.181; N 0.753; Y 0.884
R132: M 0.275; Y 0.288; K 0.0662; V -0.3; G 0.129; Q 0.308; S 0.00923; C -0.0301; I -0.0777; H 0.458; D 0.252; N -0.47; W 0.538; E 0.0732; A 0.179; F -0.0252; P -0.258; L -0.017; T -0.125
K131: V 0.174; Q -0.125; M 0.154; P 0.0359; N 0.0453; W -0.218; C -0.0234; E 0.0987; A 0.284; F 0.0637; T -0.293; Y 0.0539; L -0.159; H 0.185; D -0.154; I -0.103; S 0.0229; G -0.226; R -0.372
